Data as given in US20180030127A1 (APRILBIO, published 2018).

Assays:
[1] = biological target: T1, mouse serum albumin (mouse, UniProt P07724 25-608); experiment: monoclonal phage ELISA at pH 6: Fab on phage, about 10^8 CFU/well, on antigen coated at 5 ug/ml; anti-human kappa-HRPO, TMB, A450
T1 construct: Bought protein; also called MSA; mouse SA
Procedure: (§1) For the monoclonal phage ELISA, the recombinant phage was obtained from positive E. coli clones by phage rescue, and ˜10⁸ CFU/well were added to MaxiSorb ELISA plates (Nunc, Roskilde, Denmark) that were coated with 5 μg/ml HSA, RSA, MSA or BSA. The phage was allowed to bind to the antigens either at pH 6 or at pH 7.4 for 1 h at 37° C. A goat anti-human kappa L Ab-conjugated with HRPO (Sigma-Aldrich) was used as a secondary antibody. The binding signals were visualized with a TMB substrate (BD Science, San Jose, Calif., USA), and the absorbance at 450 nm was measured using an ELISA reader (Bio-Rad, Hercules, Calif., USA). The data represent the average of three experiments standard deviation. For the conventional ELISA, the various antigens [human SA, rat SA, mouse SA, monkey SA (Alpha diagnositic Intl., San Antonio, Tex., USA), canine SA (CUSABIO, Wuhan, Hubei, China). rabbit SA (Sigma-Aldrich), epidermal growth factor receptor (EGFR) (R&D systems, Minneapolis, Minn., USA), epithelial cell adhesion molecule (EpCAM) (R&D systems), IL-15 receptor a (IL-15Ra) (R&D systems), IL-10 (eBioscience, San Diego, Calif., USA), CD16a (R&D systems), c-MET (Sinobiological, Beijing, China)] at 5 μg/ml concentrations were immobilized on the microtiter plates, and the Fab molecules were allowed to bind to the antigens, and detected as above. […]

[2] = biological target: T2, human serum albumin (human, UniProt P02768 25-609); experiment: ELISA at pH 7.4: purified soluble Fab titrated on antigen coated at 5 ug/ml; anti-human kappa L chain pAb-HRPO, TMB, A450
T2 construct: Bought protein; also called HSA; human SA
Procedure: as §1

[3] = biological target: T3, rat serum albumin (rat, UniProt P02770 25-608); experiment: as above
T3 construct: Bought protein; also called RSA; rat SA
T3 sequence (P02770 25-608 limits assumed): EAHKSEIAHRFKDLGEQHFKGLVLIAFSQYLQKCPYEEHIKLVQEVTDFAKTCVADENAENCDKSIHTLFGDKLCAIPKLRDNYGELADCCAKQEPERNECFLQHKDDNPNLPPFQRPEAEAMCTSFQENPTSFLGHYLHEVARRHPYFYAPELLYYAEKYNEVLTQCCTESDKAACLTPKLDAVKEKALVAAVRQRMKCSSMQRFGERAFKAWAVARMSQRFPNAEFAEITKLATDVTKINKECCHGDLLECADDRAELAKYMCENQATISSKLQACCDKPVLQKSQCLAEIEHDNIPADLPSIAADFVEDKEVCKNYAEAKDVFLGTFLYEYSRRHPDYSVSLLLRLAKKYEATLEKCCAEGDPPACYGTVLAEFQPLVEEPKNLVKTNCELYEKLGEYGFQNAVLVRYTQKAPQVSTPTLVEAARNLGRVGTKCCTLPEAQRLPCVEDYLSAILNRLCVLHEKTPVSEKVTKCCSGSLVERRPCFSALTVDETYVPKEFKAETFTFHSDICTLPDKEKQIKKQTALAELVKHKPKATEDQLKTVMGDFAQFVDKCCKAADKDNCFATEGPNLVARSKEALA
Procedure: as §1

[4] = biological target: T4, bovine serum albumin (bovine, UniProt P02769 25-607); experiment: monoclonal phage ELISA at pH 6, antigen coated at 5 ug/ml, anti-human kappa-HRPO, A450
T4 construct: also called BSA; bovine SA
T4 sequence (P02769 25-607 limits assumed): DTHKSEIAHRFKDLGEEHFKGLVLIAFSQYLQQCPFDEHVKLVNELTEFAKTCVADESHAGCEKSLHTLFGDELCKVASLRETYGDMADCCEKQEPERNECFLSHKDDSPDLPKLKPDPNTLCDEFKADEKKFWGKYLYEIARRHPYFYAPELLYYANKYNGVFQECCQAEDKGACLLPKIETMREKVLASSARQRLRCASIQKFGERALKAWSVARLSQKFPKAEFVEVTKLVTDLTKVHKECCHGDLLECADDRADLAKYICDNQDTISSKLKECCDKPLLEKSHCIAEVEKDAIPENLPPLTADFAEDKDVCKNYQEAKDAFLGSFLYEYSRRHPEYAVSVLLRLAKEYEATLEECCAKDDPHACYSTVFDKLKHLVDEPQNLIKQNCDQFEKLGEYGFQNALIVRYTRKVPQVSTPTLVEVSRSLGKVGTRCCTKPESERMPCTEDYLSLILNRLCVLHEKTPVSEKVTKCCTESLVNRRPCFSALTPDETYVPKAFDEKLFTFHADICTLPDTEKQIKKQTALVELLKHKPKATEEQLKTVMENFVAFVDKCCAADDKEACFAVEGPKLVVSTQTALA
Procedure: (§2) For the monoclonal phage ELISA, the recombinant phage was obtained from positive E. coli clones by phage rescue, and ˜10⁸ CFU/well were added to MaxiSorb ELISA plates (Nunc, Roskilde, Denmark) that were coated with 5 μg/ml HSA, RSA, MSA or BSA. The phage was allowed to bind to the antigens either at pH 6 or at pH 7.4 for 1 h at 37° C. A goat anti-human kappa L Ab-conjugated with HRPO (Sigma-Aldrich) was used as a secondary antibody. The binding signals were visualized with a TMB substrate (BD Science, San Jose, Calif., USA), and the absorbance at 450 nm was measured using an ELISA reader (Bio-Rad, Hercules, Calif., USA). The data represent the average of three experiments standard deviation. For the conventional ELISA, the various antigens [human SA, rat SA, mouse SA, monkey SA (Alpha diagnositic Intl., San Antonio, Tex., USA), canine SA (CUSABIO, Wuhan, Hubei, China). rabbit SA (Sigma-Aldrich), epidermal growth factor receptor (EGFR) (R&D systems, Minneapolis, Minn., USA), epithelial cell adhesion molecule (EpCAM) (R&D systems), IL-15 receptor a (IL-15Ra) (R&D systems), IL-10 (eBioscience, San Diego, Calif., USA), CD16a (R&D systems), c-MET (Sinobiological, Beijing, China)] at 5 μg/ml concentrations were immobilized on the microtiter plates, and the Fab molecules were allowed to bind to the antigens, and detected as above. To determine the concentration of soluble Fab or Fab-hGH fusion proteins, a sandwich ELISA was performed using a mouse anti-human IgG Fd mAb (AprilBio) as a capturing Ab and the goat anti-human kappa L chain pAb-HRPO conjugated (Sigma-Aldrich) as a detecting antibody. The human Fab fragment (Bethyl, Montgomery, Tex., USA) with a known concentration was used to draw the standard curve. For detecting the hGH domain, T-20, a goat pAb specific for the C-terminus of the hGH (Santacruz Biotechnology, Dallas, Tex., USA) and NYThGH, a mouse mAb specific for full-length hGH (Prospec, East Brunswick, N.J., USA) were used followed by a rabbit anti-goat IgG pAb-HRPO conjugated (Sigma-Aldrich) or a goat anti-mouse IgG pAb-HRPO conjugated (Sigma-Aldrich), respectively as a secondary antibody. A goat anti-human GCSF pAb (R&D Systems) was used to detecting the G-CSF domain, and a rabbit anti-human IFN-β pAb (PEPROTECH, Rocky Hill, USA) was used to detect the IFN-β domain.

[5] = biological target: T2, human serum albumin; experiment: ELISA at pH 6.0: purified soluble Fab titrated on antigen coated at 5 ug/ml; anti-human kappa L chain pAb-HRPO, TMB, A450
Procedure: as §1

[6] = biological target: T3, rat serum albumin; experiment: as above
Procedure: as §1

[7] = biological target: T2, human serum albumin; experiment: monoclonal phage ELISA at pH 7.4: Fab on phage, about 10^8 CFU/well, on antigen coated at 5 ug/ml; anti-human kappa-HRPO, TMB, A450
Procedure: as §2

[8] = biological target: T3, rat serum albumin; experiment: as above
Procedure: as §2

[9] = biological target: T1, mouse serum albumin; experiment: monoclonal phage ELISA at pH 6, antigen coated at 5 ug/ml, anti-human kappa-HRPO, A450
Procedure: as §2

[10] = biological target: T3, rat serum albumin; experiment: as above
Procedure: as §2

[11] = biological target: T1, mouse serum albumin; experiment: monoclonal phage ELISA at pH 7.4: Fab on phage, about 10^8 CFU/well, on antigen coated at 5 ug/ml; anti-human kappa-HRPO, TMB, A450
Procedure: as §2

[12] = biological target: T1, mouse serum albumin; experiment: monoclonal phage ELISA at pH 7.4, antigen coated at 5 ug/ml, anti-human kappa-HRPO, A450
Procedure: as §2

[13] = biological target: T3, rat serum albumin; experiment: as above
Procedure: as §2

[14] = biological target: T4, bovine serum albumin; experiment: as above
Procedure: as §2

T1 sequence (P07724 25-608 limits assumed): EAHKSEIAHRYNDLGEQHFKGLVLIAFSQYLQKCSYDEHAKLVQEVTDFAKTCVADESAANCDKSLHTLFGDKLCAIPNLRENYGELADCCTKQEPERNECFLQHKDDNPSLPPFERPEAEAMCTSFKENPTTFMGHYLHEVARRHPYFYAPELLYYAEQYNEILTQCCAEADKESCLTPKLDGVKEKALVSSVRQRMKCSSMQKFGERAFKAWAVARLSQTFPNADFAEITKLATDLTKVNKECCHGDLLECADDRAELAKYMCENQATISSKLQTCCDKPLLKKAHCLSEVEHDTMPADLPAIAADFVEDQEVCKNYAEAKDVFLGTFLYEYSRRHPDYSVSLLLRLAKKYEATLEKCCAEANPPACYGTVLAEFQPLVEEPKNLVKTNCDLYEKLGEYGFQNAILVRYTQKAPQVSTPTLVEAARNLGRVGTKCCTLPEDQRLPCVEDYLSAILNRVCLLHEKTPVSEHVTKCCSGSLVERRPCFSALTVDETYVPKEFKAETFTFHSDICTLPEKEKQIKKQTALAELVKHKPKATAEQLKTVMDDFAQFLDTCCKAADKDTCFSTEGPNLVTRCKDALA

| Binder | binding result [4] | binding result [7] | binding result [8] | binding result [12] | binding result [13] | further results |
| --- | --- | --- | --- | --- | --- | --- |
| SL310 (Fab, V domains shown, Human Fab (VH+CH1, VL+CLk); tested on phage and as soluble Fab purified from E. coli; also called SL310 Fab) VH: QVQLVQSGGGPVKPGGSLRLSCAASGFMFRAYSMNWVRQAPGKGLEWVSSISSSGRYIHYADSVKGRFTISRDNAKNSLYLQMNSLRAEDTAVYYCARETVMAGKALDYWGQGTLVTVSS VL: ELVLTQSPGTLSLSPGERATLSCRASQSVSSSSLAWYQQKPGQAPRLLIYGASSRATGIPDRFSGSGSGTDFTLTISSLQPEDAATYYCQKYSSYPLTFGQGTKLEIKR | no binding | – | – | – | – | binding result [1]: binds; EC50 (read off the curve) [2]: ~0.3 µg/mL; EC50 (read off the curve) [3]: ~0.2 µg/mL; EC50 (read off the curve) [5]: ~0.1 µg/mL; EC50 (read off the curve) [6]: ~0.6 µg/mL |
| SL301 (Fab, V domains shown, Human Fab (VH+CH1, VL+CLk); tested on phage and as soluble Fab purified from E. coli; also called SL301 Fab) VH: QVQLVQSGGGPVKPGGSLRLSCAASGFMFRAYSMNWVRQAPGKGLEWVSSISSSGRYIHYADSVKGRFTISRDNAKNSLYLQMNSLRAEDTAVYYCARETVMAGKALDYWGQGTLVTVSS VL: ELVLTQSPGTLSLSPGERATLSCRASETVSSRQLAWYQQKPGQAPRLLIYGASSRATGIPDRFSGSGSGTDFTLTISRLEPEDSAVFYCQQYGSSPRTFGGGTKLEIKR | no binding | binds | binds | – | – | – |
| SA141 (Fab, V domains shown, also called SA141 Fab) VH: QVQLVQSGGGLVQPGGSLRLSCAASGFTFSSYAMSWVRQAPGKGLEWLSVISHDGGFQYYADSVKGRFTVSRDNSKNTLYLQMNSLRAEDTAVYYCARAGWLRQYGMDVWGQGTLVTVSS VL: not shown | no binding | binds | – | – | – | binding result [9]: no binding; binding result [10]: no binding |
| SL18 (Fab, V domains shown, Human Fab (VH+CH1, VL+CLk); tested on phage and as soluble Fab purified from E. coli; also called SL18 Fab) VH: EVQLVQSGTEVKKPGESLKISCKISGYSFTAYWIAWVRQMPGKGLEWMGMIWPPDADARYSPSFQGQVTFSVDKSISTAYLQWHSLKTSDTAVYYCARLYSGSYSPWGQGTLVTVSS VL: ELVLTQSPGTLSLSPGERATLSCRASQSIFNYVAWYQQKPGQAPRLLIYDASNRATGIPARFSGSGSGTDFTLTISSLEPEDFAVYYCQQRSKWPPTWTFGQGTRVDIKR | no binding | binds | binds | – | – | binding result [11]: binds |
| SA140 (Fab, V domains shown, also called SA140 Fab) VH: QVQLVQSGGGVVQTGGSLRLSCAASGFTFRNYGIHWVRQAPGKGLEWVASISYDGSNKYYADSVKGRFTISRDNSRNTVHVQMDSLRGGDTAVYYCARDVHYYGSGSYYNAFDIWGQGTLVTVSS VL: not shown | no binding | – | – | no binding | no binding | – |
| SA139 (Fab, V domains shown, Human Fab (VH+CH1, VL+CLk); also called SA139 Fab) VH: EVQLLQSGAEVKEPGASVKVSCKASGYTFSSYGISWVRQAPGQGLEWVGRINTYNGNTGYAQRLQGRVTMTTDTSTSIAYMEVRSLRSDDTAVYYCARLGHCQRGICSDALDTWGQGTMVTVSS VL: not shown | – | binds | – | no binding | no binding | binding result [14]: no binding |
